From PMC8722602 (bioRxiv, 2021) come the findings set out here.

This test concerns the target SARS-CoV-2 RBD-his tag protein (SARS-CoV-2, ancestral (Wuhan-Hu-1/WA1), UniProt P0DTC2). In words: ELISA.

B1: Clone 2 (recombinant mAb, mouse variable regions on human IgG1) (antibody, V domains shown)
VH: EVQLQQSGPELVKPGASVKISCKASGYSFTGYSMNWMKQSPEKSLEWIGEINPSTGGTTDNQKFKAKATLTVDKSSSTAYMQLKSLTSEDSAVYYCARSRGDYWGQGTSVTVSS
VL: DIVLTQSPASLAVSLGQRATISCRASESVEYYGTSLMQWYQQKPGQPPKVLIYAASNVESGVPARFSGSGSGTDFSLNIHPVEEDDIAMYFCQQSRKVPWTFGGGTKLEIK
Consider B1, for which the binding result is recorded as “binds”.

B2: Clone 6 (recombinant mAb, mouse variable regions on human IgG1) (antibody, V domains shown)
VH: QVQLQQSAAELARPGASVKMSCKASGYTFTSYTMHWVKQRPGQGLEWIGYINPTSGYTEYNQNFKDKTTLTADKSSSTAYMQLNSLTSEDSAVYYCAREGHRVGPAYWGQGTLVTVSA
VL: not shown
Turning to B2, the binding result was “binds”.
